Measurements from article PMC12044017, “CDK4/6-mediated phosphorylation of DUB3 promotes YAP1 stability and hepatocellular carcinoma progression” (Cell Death Discovery, 2025).

Target: T1, His-DUB3 (UniProt Q6R6M4 1-530)
T1 construct: deubiquitinase DUB3 (USP17L2), cloned into pET30a; the methods name only GST-DUB3 WT and His-YAP1
T1 sequence (looked up): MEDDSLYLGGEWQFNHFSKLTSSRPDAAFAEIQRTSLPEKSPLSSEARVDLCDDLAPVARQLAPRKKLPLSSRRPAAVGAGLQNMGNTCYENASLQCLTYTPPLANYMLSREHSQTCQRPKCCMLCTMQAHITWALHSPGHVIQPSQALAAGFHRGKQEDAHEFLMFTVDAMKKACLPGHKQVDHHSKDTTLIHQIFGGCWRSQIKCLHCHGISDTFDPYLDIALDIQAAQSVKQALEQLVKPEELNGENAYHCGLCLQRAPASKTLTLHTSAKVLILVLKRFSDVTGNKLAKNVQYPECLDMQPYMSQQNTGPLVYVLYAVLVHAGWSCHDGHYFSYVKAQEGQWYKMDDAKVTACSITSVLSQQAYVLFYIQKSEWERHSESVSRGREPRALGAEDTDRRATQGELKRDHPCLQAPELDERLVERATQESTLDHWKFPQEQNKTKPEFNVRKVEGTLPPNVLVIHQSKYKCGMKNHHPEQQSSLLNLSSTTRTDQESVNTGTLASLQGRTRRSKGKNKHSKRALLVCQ
Test: pull-down; GST-fusion protein on Pierce Glutathione agarose mixed with purified His-tagged protein at 4 °C for 2 hours; beads washed four times; western blot
Conditions: both partners purified

B1: GST-CDK4 (enzyme, UniProt P11802 1-303, looked up)
chain: MATSRYEPVAEIGVGAYGTVYKARDPHSGHFVALKSVRVPNGGGGGGGLPISTVREVALLRRLEAFEHPNVVRLMDVCATSRTDREIKVTLVFEHVDQDLRTYLDKAPPPGLPAETIKDLMRQFLRGLDFLHANCIVHRDLKPENILVTSGGTVKLADFGLARIYSYQMALTPVVVTLWYRAPEVLLQSTYATPVDMWSVGCIFAEMFRRKPLFCGNSEADQLGKIFDLIGLPPEDDWPRDVSLPRGAFPPRGPRPVQSVVPEMEESGAQLLLEMLTFNPHKRISAFRALQHSYLHKDEGNPE
notes: cyclin-dependent kinase 4 (CDK4); no cyclin partner is mentioned; also called cyclin-dependent kinase 4; source: bacterial-purified recombinant; GST-fusion proteins purified on Pierce Glutathione agarose
  binding result: binds
